According to IntAct's records for PubMed 31515488:

B1: E3 ubiquitin-protein ligase MARCHF5 (Homo sapiens), Q9NX47 (parent)
chain: MPDQALQQMLDRSCWVCFATDEDDRTAEWVRPCRCRGSTKWVHQACLQRWVDEKQRGNSTARVACPQCNAEYLIVFPKLGPVVYVLDLADRLISKACPFAAAGIMVGSIYWTAVTYGAVTVMQVVGHKEGLDVMERADPLFLLIGLPTIPVMLILGKMIRWEDYVLRLWRKYSNKLQILNSIFPGIGCPVPRIPAEANPLADHVSATRILCGALVFPTIATIVGKLMFSSVNSNLQRTILGGIAFVAIKGAFKVYFKQQQYLRQAHRKILNYPEQEEA
B2: E3 ubiquitin-protein ligase CBL-B (Homo sapiens), Q13191 (parent)
chain: MANSMNGRNPGGRGGNPRKGRILGIIDAIQDAVGPPKQAAADRRTVEKTWKLMDKVVRLCQNPKLQLKNSPPYILDILPDTYQHLRLILSKYDDNQKLAQLSENEYFKIYIDSLMKKSKRAIRLFKEGKERMYEEQSQDRRNLTKLSLIFSHMLAEIKAIFPNGQFQGDNFRITKADAAEFWRKFFGDKTIVPWKVFRQCLHEVHQISSGLEAMALKSTIDLTCNDYISVFEFDIFTRLFQPWGSILRNWNFLAVTHPGYMAFLTYDEVKARLQKYSTKPGSYIFRLSCTRLGQWAIGYVTGDGNILQTIPHNKPLFQALIDGSREGFYLYPDGRSYNPDLTGLCEPTPHDHIKVTQEQYELYCEMGSTFQLCKICAENDKDVKIEPCGHLMCTSCLTAWQESDGQGCPFCRCEIKGTEPIIVDPFDPRDEGSRCCSIIDPFGMPMLDLDDDDDREESLMMNRLANVRKCTDRQNSPVTSPGSSPLAQRRKPQPDPLQIPHLSLPPVPPRLDLIQKGIVRSPCGSPTGSPKSSPCMVRKQDKPLPAPPPPLRDPPPPPPERPPPIPPDNRLSRHIHHVESVPSRDPPMPLEAWCPRDVFGTNQLVGCRLLGEGSPKPGITASSNVNGRHSRVGSDPVLMRKHRRHDLPLEGAKVFSNGHLGSEEYDVPPRLSPPPPVTTLLPSIKCTGPLANSLSEKTRDPVEEDDDEYKIPSSHPVSLNSQPSHCHNVKPPVRSCDNGHCMLNGTHGPSSEKKSNIPDLSIYLKGDVFDSASDPVPLPPARPPTRDNPKHGSSLNRTPSDYDLLIPPLGEDAFDALPPSLPPPPPPARHSLIEHSKPPGSSSRPSSGQDLFLLPSDPFVDLASGQVPLPPARRLPGENVKTNRTSQDYDQLPSCSDGSQAPARPPKPRPRRTAPEIHHRKPHGPEAALENVDAKIAKLMGEGYAFEEVKRALEIAQNNVEVARSILREFAFPPPVSPRLNL
B3: Angiomotin (Homo sapiens), Q4VCS5 (parent)
chain: MRNSEEQPSGGTTVLQRLLQEQLRYGNPSENRSLLAIHQQATGNGPPFPSGSGNPGPQSDVLSPQDHHQQLVAHAARQEPQGQEIQSENLIMEKQLSPRMQNNEELPTYEEAKVQSQYFRGQQHASVGAAFYVTGVTNQKMRTEGRPSVQRLNPGKMHQDEGLRDLKQGHVRSLSERLMQMSLATSGVKAHPPVTSAPLSPPQPNDLYKNPTSSSEFYKAQGPLPNQHSLKGMEHRGPPPEYPFKGMPPQSVVCKPQEPGHFYSEHRLNQPGRTEGQLMRYQHPPEYGAARPAQDISLPLSARNSQPHSPTSSLTSGGSLPLLQSPPSTRLSPARHPLVPNQGDHSAHLPRPQQHFLPNQAHQGDHYRLSQPGLSQQQQQQQQQHHHHHHHQQQQQQQPQQQPGEAYSAMPRAQPSSASYQPVPADPFAIVSRAQQMVEILSDENRNLRQELEGCYEKVARLQKVETEIQRVSEAYENLVKSSSKREALEKAMRNKLEGEIRRMHDFNRDLRERLETANKQLAEKEYEGSEDTRKTISQLFAKNKESQREKEKLEAELATARSTNEDQRRHIEIRDQALSNAQAKVVKLEEELKKKQVYVDKVEKMQQALVQLQAACEKREQLEHRLRTRLERELESLRIQQRQGNCQPTNVSEYNAAALMELLREKEERILALEADMTKWEQKYLEENVMRHFALDAAATVAAQRDTTVISHSPNTSYDTALEARIQKEEEEILMANKRCLDMEGRIKTLHAQIIEKDAMIKVLQQRSRKEPSKTEQLSCMRPAKSLMSISNAGSGLLSHSSTLTGSPIMEEKRDDKSWKGSLGILLGGDYRAEYVPSTPSPVPPSTPLLSAHSKTGSRDCSTQTERGTESNKTAAVAPISVPAPVAAAATAAAITATAATITTTMVAAAPVAVAAAAAPAAAAAPSPATAAATAAAVSPAAAGQIPAAASVASAAAVAPSAAAAAAVQVAPAAPAPVPAPALVPVPAPAAAQASAPAQTQAPTSAPAVAPTPAPTPTPAVAQAEVPASPATGPGPHRLSIPSLTCNPDKTDGPVFHSNTLERKTPIQILGQEPDAEMVEYLI

Variants of: B1
Settings: with ube2w_human UBE2W
For MPDQALQQMLDRSCWVCFAADEDDRTAEWVRPCRCRGSTKWVHQACLQRWVDEKQRGNSTARVACPQCNAEYLIVFPKLGPVVYVLDLADRLISKACPFAAAGIMVGSIYWTAVTYGAVTVMQVVGHKEGLDVMERADPLFLLIGLPTIPVMLILGKMIRWEDYVLRLWRKYSNKLQILNSIFPGIGCPVPRIPAEANPLADHVSATRILCGALVFPTIATIVGKLMFSSVNSNLQRTILGGIAFVAIKGAFKVYFKQQQYLRQAHRKILNYPEQEEA [T20A], the “effect of a mutation on the interaction” value was “with no effect”.
With MPDQALQQMLDRSCWVCFATDEDDRTAEWVRPCRCRGSTKWVHQACLQRWVDEKQRGNSTARVACPQCNAEYLIVFPKLGPVVYVLDLADRLISKACPFAAAGIMVGSIYWTAVTYGAVTVMQVVGHKEGLDVMERADPLFLLIGLPTIPVMLILGKMIRWEDYVLRLWRKYSNKLQILNSIFPGIGCPVPRIPAEANPLANHVSATRILCGALVFPTIATIVGKLMFSSVNSNLQRTILGGIAFVAIKGAFKVYFKQQQYLRQAHRKILNYPEQEEA [D202N] the “effect of a mutation on the interaction” value was “with no effect”.

Variants of: B2
Settings: with gors2_human GORASP2, Q9H8Y8
S622T was tested, and the “effect of a mutation on the interaction” value was “with no effect”.

Variants of: B3
Settings: with UNC119, Q13432
For A556V, the “effect of a mutation on the interaction” value was “with no effect”.

Variants of: B3
Settings: with KRT15, P19012
Sequence of KRT15, P19012 (P19012 whole entry): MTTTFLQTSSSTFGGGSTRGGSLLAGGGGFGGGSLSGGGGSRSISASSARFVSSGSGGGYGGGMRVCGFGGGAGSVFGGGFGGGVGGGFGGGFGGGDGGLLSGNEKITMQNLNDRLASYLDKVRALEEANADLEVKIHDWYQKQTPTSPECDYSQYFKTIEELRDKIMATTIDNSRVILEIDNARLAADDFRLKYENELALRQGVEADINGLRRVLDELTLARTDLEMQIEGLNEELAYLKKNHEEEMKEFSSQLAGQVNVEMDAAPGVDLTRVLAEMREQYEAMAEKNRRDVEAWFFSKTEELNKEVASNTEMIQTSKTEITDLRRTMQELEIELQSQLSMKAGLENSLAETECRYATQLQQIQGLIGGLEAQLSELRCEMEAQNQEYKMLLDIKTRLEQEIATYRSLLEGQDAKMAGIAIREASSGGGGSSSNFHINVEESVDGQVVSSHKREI
A556V was tested, and the “effect of a mutation on the interaction” value was “with no effect”.

Variants of: B3
Settings: with maga4_human MAGEA4, P43358
Sequence of maga4_human MAGEA4, P43358 (P43358 whole entry): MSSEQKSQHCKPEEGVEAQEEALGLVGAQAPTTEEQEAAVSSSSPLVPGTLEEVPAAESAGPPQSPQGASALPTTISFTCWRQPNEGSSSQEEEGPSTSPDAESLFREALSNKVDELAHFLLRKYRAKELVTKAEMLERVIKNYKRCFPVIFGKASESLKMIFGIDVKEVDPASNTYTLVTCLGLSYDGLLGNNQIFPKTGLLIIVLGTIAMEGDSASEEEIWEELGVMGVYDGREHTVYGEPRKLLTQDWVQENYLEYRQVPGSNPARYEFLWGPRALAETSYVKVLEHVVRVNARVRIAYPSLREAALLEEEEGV
T899A was tested, and the “effect of a mutation on the interaction” value was “with no effect”.
